Consider one molecule from US20240182547A1 (MOGAM INSTITUTE FOR BIOMEDICAL RESEARCH, published 2024).

Usually Kd stands for the equilibrium constant for the complex coming apart. Read a low Kd as a tighter complex.

In the assay the target is DS-Cav1 (RSV F-protein, pre-form, in-house) (respiratory syncytial virus (RSV), UniProt P03420 26-513). Kind of assay: ELISA, coated DS-Cav1, IgG titrated. For orientation: In an ELISA, binding on a coated surface is turned into a signal by an enzyme label.
DS-Cav1 (RSV F-protein, pre-form, in-house), sequence (P03420 26-524): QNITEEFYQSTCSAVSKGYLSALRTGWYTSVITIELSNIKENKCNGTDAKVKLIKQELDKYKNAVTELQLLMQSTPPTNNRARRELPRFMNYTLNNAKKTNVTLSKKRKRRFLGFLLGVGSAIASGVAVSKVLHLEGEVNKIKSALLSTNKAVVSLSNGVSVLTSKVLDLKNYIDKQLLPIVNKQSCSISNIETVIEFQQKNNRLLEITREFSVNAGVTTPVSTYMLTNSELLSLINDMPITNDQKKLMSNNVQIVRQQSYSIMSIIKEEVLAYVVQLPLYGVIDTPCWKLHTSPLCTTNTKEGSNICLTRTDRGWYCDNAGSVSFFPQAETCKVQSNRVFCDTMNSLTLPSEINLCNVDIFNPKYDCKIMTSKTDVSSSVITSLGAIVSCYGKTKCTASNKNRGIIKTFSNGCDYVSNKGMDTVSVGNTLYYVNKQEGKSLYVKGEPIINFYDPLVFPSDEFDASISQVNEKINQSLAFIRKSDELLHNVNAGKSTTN

B1: 12A1 (antibody, V domains shown)
VH: EVQLVESGGGLIQPGGSLRLSCAGSGFTFSSYTMHWVRQAPGKGLEWVSSITGGSSYVDYSASVKGRFTISRDNAQSSLYLQMNSLRAEDTAVYYCARDDYGSGSYSNWFDPWGQGTLVTVSS
VL: QSVLTQPPSVSGAPGQRVTISCTGSSSDIGAGYDVHWYQQLPGTAPKLLIFANTNRPSGVPDRFSGSKSGASASLAITGLQADDEADYYCQSYDRSLSHVFGTGTKVTVLG
notes: IgG made in Expi293; also called #8
Regarding B1, the Kd is roughly 1.66 nM.
